Data: paper PMC11676163, “Comparison of Two Chelator Scaffolds as Basis for Cholecystokinin-2 Receptor Targeting Bimodal Imaging Probes” (Pharmaceuticals, 2024)
Values joined by “and” are separate entries in the source; they are usually repeats but may differ in a detail not shown here. Equal values may be shown once.

How the values were obtained:
CCK2 receptor = molecular target: T1, CCK2 receptor (Homo sapiens, UniProt P32239); assay: Receptor-binding affinity, competition against [^177Lu]Lu-DOTA-MGS5 on A431-CCK2R cells; conditions: metal-free compounds, vs [^177Lu]Lu-DOTA-MGS5, 1 h RT
T1 construct: expressed in transfected cells; host or cells: A431 human squamous carcinoma cells (A431-CCK2R), provided by Dr. Luigi Aloj
T1 sequence (P32239 1-447): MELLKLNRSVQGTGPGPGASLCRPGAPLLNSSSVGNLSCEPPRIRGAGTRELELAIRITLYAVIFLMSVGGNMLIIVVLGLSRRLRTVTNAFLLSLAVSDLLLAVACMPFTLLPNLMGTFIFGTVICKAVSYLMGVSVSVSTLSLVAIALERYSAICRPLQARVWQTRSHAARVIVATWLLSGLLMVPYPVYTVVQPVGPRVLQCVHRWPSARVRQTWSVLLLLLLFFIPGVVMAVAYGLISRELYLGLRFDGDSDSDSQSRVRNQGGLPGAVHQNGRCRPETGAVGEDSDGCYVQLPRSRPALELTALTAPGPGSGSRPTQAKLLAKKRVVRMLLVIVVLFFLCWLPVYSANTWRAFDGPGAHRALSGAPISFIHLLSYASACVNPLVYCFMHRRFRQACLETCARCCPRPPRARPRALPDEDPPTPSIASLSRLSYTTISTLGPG
Procedure: A total of 5 µg of DOTA-MGS5 were radiolabelled with 20 µL of [^177Lu]LuCl3 solution (300–400 MBq; 90–95 GBq/µmol) and 30 µL of 0.4 M sodium acetate/0.24 M gentisic acid solution with pH 5. The labelling mixture was heated at 90 °C for 20 min. At the end, the solution was diluted to a concentration of 200 nM and stored in a freezer for further use. Binding assays were carried out in 96-well filter plates (Multi-ScreenHTS-FB, Merck Group, Darmstadt, Germany) pretreated with 10 mM TRIS/139 mM NaCl buffer at pH 7.4 (TRIS-buffer) (2 × 250 μL) before 400,000 A431-CCK2R cells per well were added in 20 mM HEPES buffer at pH 7.4 containing 10 mM MgCl2, 14 μM bacitracin, and 0.5% (w/v) bovine serum albumin (BSA) (binding assay buffer). Competition assays were performed two times in triplicate using increasing concentrations of competitors (0.001–1,000 nM) and a constant amount of radioligands (~30,000 cpm, 0.3 nM). After 1 h of incubation at room temperature (RT), the medium was removed by vacuum filtration and the filters were rapidly rinsed with ice-cold binding assay buffer (2 × 200 μL), removed, and counted in the γ-counter. Half-maximal inhibitory concentration (IC50) values were calculated following non-linear regression with Origin software (MicroCal Origin 6.1, Northampton, MA, USA).

in vivo [1] = conditions: athymic BALB/c nude, mouse, total radioactivity
Procedure: (§1) For the induction of tumour xenografts, 2 × 10^6 of A431-CCK2R or A431-mock cells in 200 μL appropriate medium and Matrigel (1:1) were subcutaneously injected in the right and left flank of each mouse (athymic BALB/c nude), respectively. The tumours were allowed to grow until they had reached a volume of 0.3 to 0.6 cm^3. To evaluate ex vivo biodistribution on tumour models, 3 mouse xenografts were injected with 0.05 nmol of radiotracer (1 MBq) and then sacrificed after 2 h. For the comparative imaging study (PET/CT and in vivo fluorescence imaging), 2 xenograft-bearing mice were injected with 0.3 nmol (6 MBq) of radiotracer. Static PET/CT images of the anesthetized animals in prone position were acquired with a Mediso NanoScan PET/CT small-animal imaging system (Mediso Medical Imaging Systems, Budapest, Hungary) at 1, 2, and 3 h p.i. Image reconstruction was performed via Mediso Tera-Tomo 3D PET iterative reconstruction (Mediso Medical Imaging Systems, Budapest, Hungary). The images were visualized, processed, and quantified in Mediso InterView FUSION (Mediso Medical Imaging Systems, Budapest, Hungary). Quantitative analyses were performed on images of 3 mouse xenografts per compound. The images were normalized to injected activity and animal weight. The results were expressed as percentages of injected dose per gram tissue (% ID/g).

[2] = tested on: A431-CCK2R / A431-mock xenografts; assay: in vivo; conditions: mouse
Procedure: as §1

[3] = Distribution coefficient (LogD pH7.4), octan-1-ol/PBS; assay type: physicochemical; conditions: octan-1-ol/PBS pH 7.4, n = 6
Procedure: For lipophilicity determination, [^68Ga]Ga-CyTMG and [^68Ga]Ga-CyFMG labelling solutions were diluted with phosphate-buffered saline (PBS, pH7.4) to a concentration of 0.1 µM. A total of 300 µL of this solution was added to an Eppendorf tube containing 300 µL of octan-1-ol. The mixture was shaken at 1400 rpm and at RT for 15 min and centrifuged at 4500× g rpm for 2 min for phase separation. Afterwards, 100 µL of the organic phase and of the aqueous phase were taken out and the activities of the aliquots were quantified in a γ-counter (n = 6). The LogD values were calculated with the following formula:(1) LogDpH7.4=log10  CPMoctanol phase/CPM PBS phase

[4] = tested on: A431-CCK2R / A431-mock xenografts; assay type: in vivo, mouse; conditions: for Time after injection from which cancerous tissue could be well delineated by fluorescence imaging: A431-CCK2R xenografts, 0.3 nmol; for Persistence of fluorescence signal in the kidneys: mouse, in vivo
Procedure: as §1
Near-infrared in vivo fluorescence imaging was conducted with an in vivo MS FX PRO small-animal imaging system (Bruker Biospin Corporation, Woodbridge, CT, USA) and image analysis was performed with Bruker MI SE software v. 7.1.1.20220 (Bruker Biospin Corporation, Woodbridge, CT, USA). The mice were positioned in the system in supine position and scanned at various time intervals up to 72 h p.i. by using an appropriate filter set (excitation = 650 nm and emission = 700 nm) and identical illumination settings (acquisition time = 30 s, f-stop = 2.8, field of view = 100 mm, and binning = 4 × 4). The fluorescence emission was reported as photons/s/mm^2.

A431-CCK2R cells = assay: Cell uptake studies on A431-CCK2R cells; assay type: cell-based, human; conditions: 0.5 nM, 1 h, 37 °C
From the text: (§2) The human squamous carcinoma cell line A431 transfected with human CCK2R (A431-CCK2R) and with the empty vector alone (A431-mock) were originally provided by Dr. Luigi Aloj (Nuclear Medicine Unit, Istituto Nazionale per lo Studio e la Cura dei Tumori “Fondazione Giovanni Pascale”-IRCCS, Naples, Italy). All cell culture media and reagents were purchased from Gibco, Invitrogen (Thermo Fisher Scientific, Vienna, Austria), or Sigma-Aldrich (Darmstadt, Germany) Corporation. Dulbecco's Modified Eagle's medium (DMEM) supplemented with 10% (v/v) fetal bovine serum, FBS (10270, Invitrogen, Thermo Fisher Scientific, Waltham, MA, USA), and 1% (v/v) penicillin-streptomycin-glutamine, PSG (10378, Gibco, Thermo Fisher Scientific, Waltham, MA, USA), was used for cell culture. The cells were grown at 37 °C in a humidified atmosphere with 5% carbon dioxide and were passaged 3 times per week using a 2.5% trypsin-EDTA solution. The cell internalization of the radiolabelled compounds was measured on A431-CCK2R and A431-mock cells. A total of 1.0 × 10^6 cells per well were seeded in 6-well culture plates (Greiner Cellstar, Sigma-Aldrich […] GmbH, Vienna, Austria) and grown for 48 h. On the day of the experiment, each well was washed twice with internalization medium (culturing medium supplemented with 1% (v/v) FBS) and then incubated with 0.5 nM of a radioactive compound for 1 h at 37 °C. After the incubation, the medium was removed and the cells rinsed with 2 × 1 mL of PBS/0.5% (w/v) bovine serum albumin (BSA). Thereafter, they were washed twice with 1 mL of 50 mM glycine buffer (pH 2.8) with 0.1 M NaCl to remove the membrane-bound radiocompound. Finally, the cells were lysed with 2 × 1 mL of 1 M NaOH to determine the internalized radioligand. All fractions were measured in the γ-counter and the percentage of internalized and membrane-bound radiocompounds in relation to the total radioactivity added to the cells was reported.

physchem = assay type: physicochemical; conditions: buffer or solvent, pH 7.4
Procedure: For stability and protein binding studies, the labelling solutions were diluted with PBS or human serum to a concentration of 0.5 µM and incubated at 37 °C for 1 h, 2 h, and 4 h (n = 3). In the case of serum stability for each timepoint, 100 uL of the incubated solution was diluted 1:1 with ACN to make the proteins precipitate and the solution was centrifuged for 2 min at 14,000× g rpm. A total of 100 uL of the supernatant was then diluted 1:1 with water and analyzed by radio-HPLC. For stability in PBS, 100 uL of the incubated solution was diluted 1:1 with water and analyzed by radio-HPLC for every timepoint.

in vivo [5] = conditions: BALB/c, mouse, total radioactivity
Procedure: For the ex vivo biodistribution study on healthy BALB/c mice, 3 animals per group were injected with 0.14 nmol of radiotracer (1.5 MBq) and then sacrificed after 1, 2, and 4 h. The organs of interest were extracted, weighed, and measured in the γ-counter. Results were expressed as percentages of injected dose per gram tissue (% ID/g).

A431-mock cells = assay: Cell uptake studies on A431-mock cells; assay type: cell-based, human; conditions: 0.5 nM, 1 h, 37 °C
From the text: as §2

[6] = Accumulation of radioactivity in A431-CCK2R xenografts
[7] = Accumulation of radioactivity in A431-mock tumours

SMILES	IC50 (CCK2 receptor) [nM]	tissue uptake at 2 h (in vivo [1]; 0.05 nmol, Kidney uptake) [%ID/g]	tissue uptake at 2 h (in vivo [1]; [6]) [%ID/g]	tissue uptake at 2 h (in vivo [1]; [7]) [%ID/g]	Ratio of CCK2R-positive tumours and A431-mock xenografts [2]	LogDpH7.4 ± SD [3]	Time after injection from which cancerous tissue could be well delineated by fluorescence imaging [4] [h]	Persistence of fluorescence signal in the kidneys [4]	Internalized fraction, % of total activity (A431-CCK2R cells)	Membrane bound, % of total activity (A431-CCK2R cells) [%]	remaining at 1 h, 0.5 µM (physchem) [%]	remaining at 2 h, 0.5 µM (physchem) [%]	remaining at 4 h, 0.5 µM (physchem) [%]	tissue uptake at 1 h (in vivo [5]) [%ID/g]	tissue uptake at 2 h (in vivo [5]) [%ID/g]	tissue uptake at 4 h (in vivo [5]) [%ID/g]	Internalized fraction, % of total activity (A431-mock cells) [%]	Membrane bound, % of total activity (A431-mock cells) [%]
CCCC[C@@H](C(=O)N[C@@H](CC(=O)O)C(=O)N[C@@H](Cc1cccc2ccccc12)C(N)=O)N(C)C(=O)[C@H](Cc1c[nH]c2ccccc12)NC(=O)CCOCCOCCOCCOCCn1cc(CNC(=O)CCP(=O)(O)CN2CCN(CP(=O)(O)CCC(=O)NCc3cn(CCCNC(=O)CCCCC[N+]4=C(C=CC=CC=C5N(C)c6ccc7c(S(=O)(=O)O)cc(S(=O)(=O)O)cc7c6C5(C)C)C(C)(C)c5c4ccc4c(S(=O)(=O)O)cc(S(=O)(=O)O)cc54)nn3)CCN(CP(=O)(O)CCC(=O)NCc3cn(CCOCCOCCOCCOCCC(=O)N[C@@H](Cc4c[nH]c5ccccc45)C(=O)N(C)[C@@H](CCCC)C(=O)N[C@@H](CC(=O)O)C(=O)N[C@@H](Cc4cccc5ccccc45)C(N)=O)nn3)CC2)nn1 (single isomer, unassigned) [CyTMG]	0.24 ± 0.16	–	–	–	–	–	–	–	–	–	–	–	–	–	–	–	–	–
CCCC[C@@H](C(=O)N[C@@H](CC(=O)O)C(=O)N[C@@H](Cc1cccc2ccccc12)C(N)=O)N(C)C(=O)[C@H](Cc1c[nH]c2ccccc12)NC(=O)CCOCCOCCOCCOCCn1cc(CCC(=O)N[C@H]2CCCN(O)C(=O)/C=C(/C)CCOC(=O)[C@@H](NC(=O)CCc3cn(CCOCCOCCOCCOCCC(=O)N[C@@H](Cc4c[nH]c5ccccc45)C(=O)N(C)[C@@H](CCCC)C(=O)N[C@@H](CC(=O)O)C(=O)N[C@@H](Cc4cccc5ccccc45)C(N)=O)nn3)CCCN(O)C(=O)/C=C(/C)CCOC(=O)[C@@H](NC(=O)CCc3cn(CCCNC(=O)CCCCC[N+]4=C(/C=C/C=C/C=C5/N(C)c6ccc7c(S(=O)(=O)O)cc(S(=O)(=O)[O-])cc7c6C5(C)C)C(C)(C)c5c4ccc4c(S(=O)(=O)O)cc(S(=O)(=O)O)cc54)nn3)CCCN(O)C(=O)/C=C(/C)CCOC2=O)nn1 [[^68Ga]Ga-CyFMG, metal not drawn]	–	50.7 ± 8.42	4.02 ± 1.64	1.02 ± 0.13	3.94	−1.53 ± 0.10	≥ 3	visibly declined from 24 h to disappear completely at 72 h after injection	24.48 ± 1.33% and 24.5%	0.9	99.1 ± 1.07	98.57 ± 0.47	99.3 ± 0.71	45.9 ± 3.03	59.3 ± 5.04	74.3 ± 11.7	1.3	0.7
CCCC[C@@H](C(=O)N[C@@H](CC(=O)O)C(=O)N[C@@H](Cc1cccc2ccccc12)C(N)=O)N(C)C(=O)[C@H](Cc1c[nH]c2ccccc12)NC(=O)CCOCCOCCOCCOCCn1cc(CNC(=O)CCP(=O)(O)CN2CCN(CP(=O)(O)CCC(=O)NCc3cn(CCCNC(=O)CCCCC[N+]4=C(C=CC=CC=C5N(C)c6ccc7c(S(=O)(=O)O)cc(S(=O)(=O)O)cc7c6C5(C)C)C(C)(C)c5c4ccc4c(S(=O)(=O)O)cc(S(=O)(=O)O)cc54)nn3)CCN(CP(=O)(O)CCC(=O)NCc3cn(CCOCCOCCOCCOCCC(=O)N[C@@H](Cc4c[nH]c5ccccc45)C(=O)N(C)[C@@H](CCCC)C(=O)N[C@@H](CC(=O)O)C(=O)N[C@@H](Cc4cccc5ccccc45)C(N)=O)nn3)CC2)nn1 (single isomer, unassigned) [[^68Ga]Ga-CyTMG, metal not drawn]	–	119 ± 9.12	6.47 ± 1.47	2.46 ± 0.4	2.63	−1.78 ± 0.16	≥ 1	up to 72 h	10.59 ± 0.40% and 10.6%	0.8	97.98 ± 0.2	97.56 ± 0.09	96.7 ± 1.15	75.8 ± 3.88	124 ± 6.46	173 ± 13	0.2	0.5
